Results published in US20120220530A1.

Legend:
[1] = molecular target: soluble mouse FcRn (smFcRn) (mouse) (UniProt Q61559); assay: SPR, FcRn immobilized, steady state (Req)
[2] = molecular target: shFcRn heterodimer produced by GeneArt AG (human) (UniProt P55899); assay: SPR (Biacore), immobilized shFcRn
Sequence of shFcRn heterodimer produced by GeneArt AG (human) (P55899 24-290 limits assumed, chain 1 of 2): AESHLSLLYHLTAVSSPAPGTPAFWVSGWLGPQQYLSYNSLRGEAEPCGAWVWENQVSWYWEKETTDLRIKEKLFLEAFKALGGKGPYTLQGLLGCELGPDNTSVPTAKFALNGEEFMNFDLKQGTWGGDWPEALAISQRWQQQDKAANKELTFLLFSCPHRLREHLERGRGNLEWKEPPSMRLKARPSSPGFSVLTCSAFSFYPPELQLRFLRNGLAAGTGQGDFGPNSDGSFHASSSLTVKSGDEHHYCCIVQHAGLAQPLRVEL
Sequence of shFcRn heterodimer produced by GeneArt AG (human) (chain, as listed by the source limits assumed, chain 2 of 2): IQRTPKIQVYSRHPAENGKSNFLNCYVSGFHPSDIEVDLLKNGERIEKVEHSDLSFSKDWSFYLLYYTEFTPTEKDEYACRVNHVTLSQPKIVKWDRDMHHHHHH

Sequence of soluble mouse FcRn (smFcRn) (mouse) (Q61559 22-290): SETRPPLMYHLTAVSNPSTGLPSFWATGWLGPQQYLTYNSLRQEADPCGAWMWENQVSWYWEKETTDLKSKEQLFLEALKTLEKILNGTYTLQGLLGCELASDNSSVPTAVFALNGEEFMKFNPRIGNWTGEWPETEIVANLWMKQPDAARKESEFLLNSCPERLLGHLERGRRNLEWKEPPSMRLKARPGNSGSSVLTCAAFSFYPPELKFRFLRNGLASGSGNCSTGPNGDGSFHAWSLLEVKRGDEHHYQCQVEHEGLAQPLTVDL

Row | Kd [1] | Kd [2] | Substance
1 | 86.2 µM | – | recombinant human serum albumin (RECOMBUMIN) (from UniProt P02768 25-609) (ligand; other documents disagree on this pair)
2 | – | 0.02 µM | HSA K573P conjugated to horseradish peroxidase (from UniProt P00433 31-338)
